Test results from the supplement of paper PMC12455559.
± gives the standard deviation of the averaged measurements.

How the values were obtained:
[1] = melting temperature (DSF); higher = more thermostable
In short: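 After expression in E. coli C41(DE3), the candidate enzymes were bound to nickel beads and released with SUMO protease. Their melting temperature was found by differential scanning fluorimetry with Sypro Orange on a Bio-Rad CFX96. Each sealed PCR plate well held 45 μL enzyme (0 to 0.3 mg/mL) plus 5 μL 5X dye, and fluorescence was read for 250 cycles from 25 °C at 0.3 °C per cycle (ramp 0.3 °C/s).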

[2] = purified protein yield per well (BCA); higher = higher soluble expression
In short: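 Candidate enzymes were produced in E. coli C41(DE3) grown in 2 mL autoinduction cultures containing 100 µg/mL kanamycin, first at 37 °C for 2 h and then at 18 °C for 40 h. After cell lysis, protein was captured on Ni-charged magnetic beads and freed by SUMO protease cleavage on an OT-2 robot. Purified protein yield per well was read with the Pierce Rapid Gold BCA kit. Values under 25 ug (0.1 mg/mL) fall below the detection threshold.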

[3] = PET hydrolysis, aromatic products released after 48 h (umol product/mg enzyme); higher = more PET depolymerization activity
In short: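 Reactions ran in sealed plates without shaking for 48 h at 40 or 60 °C. Each held 3.5 mg amorphous PET film or crystalline PET powder, 450 μL buffer and 5 μg (50 μL) of tagless, SUMO-cleaved, nickel-purified candidate enzyme. Buffers were 50 mM NaCitrate at pH 4.5 or 5.5, 50 mM NaPhosphate at pH 6.5 or 7.5, and glycine at pH 8.5. The supernatant's aromatic product, read at 260 and 280 nm against buffer blanks, gives PET hydrolysis activity per mg enzyme.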

[4] = substrate: cryPow, 40 °C, pH 4.5
[5] = substrate: cryPow, 40 °C, pH 5.5
[6] = substrate: cryPow, 40 °C, pH 6.5
[7] = substrate: cryPow, 40 °C, pH 7.5
[8] = substrate: cryPow, 60 °C, pH 4.5
[9] = substrate: cryPow, 60 °C, pH 5.5
[10] = substrate: cryPow, 60 °C, pH 6.5
[11] = substrate: cryPow, 60 °C, pH 7.5
[12] = substrate: aFilm, 40 °C, pH 4.5
[13] = substrate: aFilm, 40 °C, pH 5.5
[14] = substrate: aFilm, 40 °C, pH 6.5
[15] = substrate: aFilm, 40 °C, pH 7.5
[16] = substrate: aFilm, 60 °C, pH 4.5
[17] = substrate: aFilm, 60 °C, pH 5.5
[18] = substrate: aFilm, 60 °C, pH 6.5
[19] = substrate: aFilm, 60 °C, pH 7.5

ADNPYQRGPDPTPAGVAASRGPFATAQTTVAPGNGFNGGTIYYPTDTSAGTWGAVAIVPGYTALFADEEAWMGPWLSSFGFVVIGIETNSRTDFDVARGTQLLAALDYLTQQSPVRDRVDTSRLSVIGHSMGGGGVVYATEHRPSLKAAVALAPFSPSQDMSTDRVPTMVMAGQNDTVVTPSYLDGLYATMPAATQSDFVQIAGADHVYYTHPQSTEMRILIPWLKIFVDNDTRYTQFLCPSLSDSSGISIYRSKCPYVPPGTSTTGGTTSGTTSGGTTTGGTTSGGTTTGGTTSGGTTSGGTSGSACTASYATVNTWSGGFQGEVTVTAGGKPVNGWTVRWTLAGGQGISQVWNGTVSTSGSDVSVRNVSYNGSLQPSTSTTFGFLGTGTPSDVSLSCTSP [ESM043]
melting temperature [1]: 37 C
purified protein yield per well [2]: 31.4 µg
PET hydrolysis [3, 4]: 4
PET hydrolysis [3, 5]: 11
PET hydrolysis [3, 6]: 5
PET hydrolysis [3, 7]: < 3

ADNPHQRGPNPTQASITANRGTFATAETSVGGGNGFGAAKIYYPTDTSQGTFGAIAVVPGYTATWAAEGAWMGHWLASFGFVVIGIDTLNRNDFDVARGTQLLAALDYLTQRSSVRTRVDPNRLAVMGHSMGGGGTISAALRWPTLKAAIGLAPYSPSQTTSGLQVPTMLLAGQNDGTSTPASIISLYNNIPASTEKSYLELAGAGHGFPTSNNSVMTRKVIPWMKIFIDQDARYTQFLCPLQDWTGIRSYRSSCPLLPGATFSLAGSASGKCVDVPGRVQTNGTGLIIWTCNGAVNQQWTRTAAGELRIYDNAKCMDANASGPGTRVTINSCNGGNSQKWTVNANGTVTNAASGRCIDTGGTADNAPVVVNTCTGGTSQT [ESM163]
melting temperature [1]: 58 C
purified protein yield per well [2]: 96.4 µg
PET hydrolysis [3, 4]: < 3
PET hydrolysis [3, 5]: < 3
PET hydrolysis [3, 6]: < 3
PET hydrolysis [3, 7]: < 3
PET hydrolysis [3, 8]: < 3
PET hydrolysis [3, 9]: < 3
PET hydrolysis [3, 10]: < 3
PET hydrolysis [3, 11]: < 3

CVTPAPPPAPDVATVTVGAGNGFGGGTIYYPQGATGRLPVVAASPGFTENQNAVGWYGPLLAREGNIVITIDTNSPFDSPTSRADQLLAAIDYVVNRSSVASIADGSRTAVMGHSMGGGGSLEAALKRPGLKAIIPLAPWNTTTNFSGVRVPTLIVGCQNDAIAPVGSHAEPFYQSIPATTPKAYLEIAGGDHFCTNSENPTIANYVVAWTDRFLQGDTSASSRLCPPPPAGGSISEYRANCPY [ESM050]
melting temperature [1]: 82.3 C
purified protein yield per well [2]: 236 µg
PET hydrolysis [3, 12]: < 3
PET hydrolysis [3, 13]: 5
PET hydrolysis [3, 14]: 15.5 ± 0.71
PET hydrolysis [3, 15]: 7.5 ± 0.71
PET hydrolysis [3, 16]: 5
PET hydrolysis [3, 17]: 22.5 ± 5
PET hydrolysis [3, 18]: 15 ± 1.4
PET hydrolysis [3, 19]: 10.5 ± 0.71
PET hydrolysis [3, 4]: 13.5 ± 0.71
PET hydrolysis [3, 5]: 50.5 ± 11
PET hydrolysis [3, 6]: 84.5 ± 6.4
PET hydrolysis [3, 7]: 134 ± 8.5
PET hydrolysis [3, 8]: 40 ± 1.4
PET hydrolysis [3, 9]: 106 ± 2.1
PET hydrolysis [3, 10]: 132 ± 11
PET hydrolysis [3, 11]: 140 ± 12

ADNPYQRGPDPTRTSVTAVNGPFANTSVSVPTGYGFNGGRIYYPTDTSQGTFGAIAISPGYTALFSAELAWMGPWLASHGFVVIGIETNSRNDFDTARGTQLLAALDYLTQQSPVRDRVDPNRLAVAGHSMGGGGALSAATRRPSLKAVVGIAPYSPSSNLANDRVPTMIFAGQADTVVTPSYATGLYNSLPATTESVYVEVAGADHGFMVGRSNPVMVRTMLPFVKMFIDNDTRYSQFLCPLLDSSGVVTYRSTCPLLPSTPTPTDPPTPTDPPTVPPGSANEIVGTQSGRCVDVPNASRTNGTRVQLYGCNKQTNQAWTYTSSKQLQVYGNMCLDAAGTGNGAAVQIYSCHNQTNQQWNVNSNGTISNVQSGRCLDAWSTANGAQIQLYDCHGQTNQQFRLAALAG [ESM069]
melting temperature [1]: 63.4 C
purified protein yield per well [2]: 213 µg
PET hydrolysis [3, 12]: < 3
PET hydrolysis [3, 13]: 4
PET hydrolysis [3, 14]: < 3
PET hydrolysis [3, 15]: < 3
PET hydrolysis [3, 16]: < 3
PET hydrolysis [3, 17]: < 3
PET hydrolysis [3, 18]: < 3
PET hydrolysis [3, 19]: < 3
PET hydrolysis [3, 4]: 10.5 ± 2.1
PET hydrolysis [3, 5]: 29 ± 2.8
PET hydrolysis [3, 6]: 42
PET hydrolysis [3, 7]: 17 ± 1.4
PET hydrolysis [3, 8]: < 3
PET hydrolysis [3, 9]: 4.5 ± 0.71
PET hydrolysis [3, 10]: 4
PET hydrolysis [3, 11]: < 3

ADNPYQRGPDPTLASVAASRGTFATAQVNVPGGNGFASGVIYYPTDTTQGTFGAVAIVPGYSALFANEEAWMGPWLASFGFVVIGIETNSRTDSADARGTQLLAALDYLTQRSPVRDRVDPNRLSVVGHSAGGAGVLSAVVRRPSLKAAIGLAPGSPVGNYDLSTAKVPTMFISGQRDTTVTQSYLNGLYSTIPAALPSAWVEIAGVDHLFATRANNTEMRVLIPWLKIWLDNDTRYPQFLCPLMDSTNISMYRNKCPYVPPGGGPSPSPSATPSPSVTPSPSPSPSPSPSPSPSPTPTPGACTATYRTVNSWGGGYQGEVTVKAGASAVNGWTVRWTLNAGQTVSQVWNGTLSTSGSSVTVKNASYNGSLPPAGTTVFGFLANGTPATPALTCASP [ESM009]
melting temperature [1]: 58.6 C
purified protein yield per well [2]: 358 µg
PET hydrolysis [3, 4]: < 3
PET hydrolysis [3, 5]: < 3
PET hydrolysis [3, 6]: < 3
PET hydrolysis [3, 7]: < 3
PET hydrolysis [3, 8]: < 3
PET hydrolysis [3, 9]: < 3
PET hydrolysis [3, 10]: < 3
PET hydrolysis [3, 11]: < 3

SAQVTRQAAGSYARGPAPTLAGIRAALGPFAYSTVTVTAAQAGGAFGGGTIYYPDDTSQGTFGGVAAVPGYQSAEKAVAWLGPRLASQGFVVITIATNGLTDQPTARGKQLLGALDYLTAQSPAAVRQRLDPNRLAVTGHSMGGGGTLYAAWTRPSLKAAVPLAPWHTIKNWSGITVPTLVQGGTQDTTAQVGTFAEPIYQSLTGARERAYAEIADAAHGTFVRENPLIGALEVAWLKRFVDDDGRYEQFLCPAPADSELTEYRDSCPSS [DP009]
melting temperature [1]: 46.9 C
purified protein yield per well [2]: 165 µg
PET hydrolysis [3, 5]: 4
PET hydrolysis [3, 6]: 5
PET hydrolysis [3, 7]: 6
PET hydrolysis ([3]; substrate: cryPow, 40 °C, pH 8.5): 10
PET hydrolysis [3, 9]: < 3
PET hydrolysis [3, 10]: < 3
PET hydrolysis [3, 11]: < 3
PET hydrolysis ([3]; substrate: cryPow, 60 °C, pH 8.5): < 3
